From US11965039B2, “Compstatin analogues and their medical uses” (priority 2018, dated 2024)
Starred links: 1 amine or outer side, 2 acyl side, 3 side chain; linkers in the order of their positions; H or OH if unused. Positions of bridges follow the written chain, without caps; N, C: chain ends. Non-standard residues stand in square brackets, D forms with d. Groups on a side chain read outwards from the residue. *: point of attachment. C20 diacid = O=C(O)CCCCCCCCCCCCCCCCCCC(=O)*; Trp(1-Me) = Cn1cc(C[C@H](N)C(=O)O)c2ccccc21; C18 diacid = O=C(O)CCCCCCCCCCCCCCCCC(=O)*; C16 diacid = O=C(O)CCCCCCCCCCCCCCC(=O)*; γGlu = O=C(O)[C@H](CCC(=O)[*:2])N[*:1]; AEEA = NCCOCCOCC(=O)O; Sar = CNCC(=O)O

B1: Compound 112 (peptide)
peptide: Ac-SEYCI[Trp(1-Me)]QDWGEHRC[Sar]EGAK([γGlu-Gly-γGlu-C18 diacid])-NH2
modifications: disulfide 4-14
SMILES: CC[C@H](C)[C@@H]1NC(=O)[C@@H](NC(=O)[C@H](Cc2ccc(O)cc2)NC(=O)[C@H](CCC(=O)O)NC(=O)[C@H](CO)NC(C)=O)CSSC[C@@H](C(=O)N(C)CC(=O)N[C@@H](CCC(=O)O)C(=O)NCC(=O)N[C@@H](C)C(=O)N[C@@H](CCCCNC(=O)CC[C@H](NC(=O)CNC(=O)CC[C@H](NC(=O)CCCCCCCCCCCCCCCCC(=O)O)C(=O)O)C(=O)O)C(N)=O)NC(=O)[C@H](CCCNC(=N)N)NC(=O)[C@H](Cc2c[nH]cn2)NC(=O)[C@H](CCC(=O)O)NC(=O)CNC(=O)[C@H](Cc2c[nH]c3ccccc23)NC(=O)[C@H](CC(=O)O)NC(=O)[C@H](CCC(N)=O)NC(=O)[C@H](Cc2cn(C)c3ccccc23)NC1=O
B2: Compound 110 (peptide)
peptide: Ac-EGSAYCI[Trp(1-Me)]QDWGEHRC[Sar]EGKK([γGlu-Gly-γGlu-C18 diacid])-NH2
modifications: disulfide 6-16
SMILES: CC[C@H](C)[C@@H]1NC(=O)[C@@H](NC(=O)[C@H](Cc2ccc(O)cc2)NC(=O)[C@H](C)NC(=O)[C@H](CO)NC(=O)CNC(=O)[C@H](CCC(=O)O)NC(C)=O)CSSC[C@@H](C(=O)N(C)CC(=O)N[C@@H](CCC(=O)O)C(=O)NCC(=O)N[C@@H](CCCCN)C(=O)N[C@@H](CCCCNC(=O)CC[C@H](NC(=O)CNC(=O)CC[C@H](NC(=O)CCCCCCCCCCCCCCCCC(=O)O)C(=O)O)C(=O)O)C(N)=O)NC(=O)[C@H](CCCNC(=N)N)NC(=O)[C@H](Cc2c[nH]cn2)NC(=O)[C@H](CCC(=O)O)NC(=O)CNC(=O)[C@H](Cc2c[nH]c3ccccc23)NC(=O)[C@H](CC(=O)O)NC(=O)[C@H](CCC(N)=O)NC(=O)[C@H](Cc2cn(C)c3ccccc23)NC1=O
B3: Compound 108 (peptide)
peptide: {C18 diacid}-EGSEYCI[Trp(1-Me)]QDWGEHRC[Sar]E-NH2
modifications: disulfide 6-16
SMILES: CC[C@H](C)[C@@H]1NC(=O)[C@@H](NC(=O)[C@H](Cc2ccc(O)cc2)NC(=O)[C@H](CCC(=O)O)NC(=O)[C@H](CO)NC(=O)CNC(=O)[C@H](CCC(=O)O)NC(=O)CCCCCCCCCCCCCCCCC(=O)O)CSSC[C@@H](C(=O)N(C)CC(=O)N[C@@H](CCC(=O)O)C(N)=O)NC(=O)[C@H](CCCNC(=N)N)NC(=O)[C@H](Cc2c[nH]cn2)NC(=O)[C@H](CCC(=O)O)NC(=O)CNC(=O)[C@H](Cc2c[nH]c3ccccc23)NC(=O)[C@H](CC(=O)O)NC(=O)[C@H](CCC(N)=O)NC(=O)[C@H](Cc2cn(C)c3ccccc23)NC1=O
B4: Compound 101 (peptide)
peptide: Ac-EGSAICIWQDWGEHRCTEGK([γGlu-C16 diacid])-NH2
modifications: disulfide 6-16
SMILES: CC[C@H](C)[C@H](NC(=O)[C@H](C)NC(=O)[C@H](CO)NC(=O)CNC(=O)[C@H](CCC(=O)O)NC(C)=O)C(=O)N[C@H]1CSSC[C@@H](C(=O)N[C@H](C(=O)N[C@@H](CCC(=O)O)C(=O)NCC(=O)N[C@@H](CCCCNC(=O)CC[C@H](NC(=O)CCCCCCCCCCCCCCC(=O)O)C(=O)O)C(N)=O)[C@@H](C)O)NC(=O)[C@H](CCCNC(=N)N)NC(=O)[C@H](Cc2c[nH]cn2)NC(=O)[C@H](CCC(=O)O)NC(=O)CNC(=O)[C@H](Cc2c[nH]c3ccccc23)NC(=O)[C@H](CC(=O)O)NC(=O)[C@H](CCC(N)=O)NC(=O)[C@H](Cc2c[nH]c3ccccc23)NC(=O)[C@H]([C@@H](C)CC)NC1=O
B5: Compound 113 (peptide)
peptide: Ac-ASGEYCI[Trp(1-Me)]QDWGEHRC[Sar]EGEK([γGlu-Gly-γGlu-C18 diacid])-NH2
modifications: disulfide 6-16
SMILES: CC[C@H](C)[C@@H]1NC(=O)[C@@H](NC(=O)[C@H](Cc2ccc(O)cc2)NC(=O)[C@H](CCC(=O)O)NC(=O)CNC(=O)[C@H](CO)NC(=O)[C@H](C)NC(C)=O)CSSC[C@@H](C(=O)N(C)CC(=O)N[C@@H](CCC(=O)O)C(=O)NCC(=O)N[C@@H](CCC(=O)O)C(=O)N[C@@H](CCCCNC(=O)CC[C@H](NC(=O)CNC(=O)CC[C@H](NC(=O)CCCCCCCCCCCCCCCCC(=O)O)C(=O)O)C(=O)O)C(N)=O)NC(=O)[C@H](CCCNC(=N)N)NC(=O)[C@H](Cc2c[nH]cn2)NC(=O)[C@H](CCC(=O)O)NC(=O)CNC(=O)[C@H](Cc2c[nH]c3ccccc23)NC(=O)[C@H](CC(=O)O)NC(=O)[C@H](CCC(N)=O)NC(=O)[C@H](Cc2cn(C)c3ccccc23)NC1=O
B6: Compound 103 (peptide)
peptide: Ac-EGSAYCI[Trp(1-Me)]QDWGEHK([AEEA-AEEA-γGlu-C16 diacid])C[Sar]E-NH2
modifications: disulfide 6-16
SMILES: CC[C@H](C)[C@@H]1NC(=O)[C@@H](NC(=O)[C@H](Cc2ccc(O)cc2)NC(=O)[C@H](C)NC(=O)[C@H](CO)NC(=O)CNC(=O)[C@H](CCC(=O)O)NC(C)=O)CSSC[C@@H](C(=O)N(C)CC(=O)N[C@@H](CCC(=O)O)C(N)=O)NC(=O)[C@H](CCCCNC(=O)COCCOCCNC(=O)COCCOCCNC(=O)CC[C@H](NC(=O)CCCCCCCCCCCCCCC(=O)O)C(=O)O)NC(=O)[C@H](Cc2c[nH]cn2)NC(=O)[C@H](CCC(=O)O)NC(=O)CNC(=O)[C@H](Cc2c[nH]c3ccccc23)NC(=O)[C@H](CC(=O)O)NC(=O)[C@H](CCC(N)=O)NC(=O)[C@H](Cc2cn(C)c3ccccc23)NC1=O
B7: Compound 5 (peptide)
peptide: Ac-ICIWQDWGKHRCT-NH2
modifications: disulfide 2-12
SMILES: CC[C@H](C)[C@H](NC(C)=O)C(=O)N[C@H]1CSSC[C@@H](C(=O)N[C@H](C(N)=O)[C@@H](C)O)NC(=O)[C@H](CCCNC(=N)N)NC(=O)[C@H](Cc2c[nH]cn2)NC(=O)[C@H](CCCCN)NC(=O)CNC(=O)[C@H](Cc2c[nH]c3ccccc23)NC(=O)[C@H](CC(=O)O)NC(=O)[C@H](CCC(N)=O)NC(=O)[C@H](Cc2c[nH]c3ccccc23)NC(=O)[C@H]([C@@H](C)CC)NC1=O
B8: Compound 100 (peptide)
peptide: Ac-K([AEEA-AEEA-γGlu-C16 diacid])GSAICIWQDWGEHRCTEGE-NH2
modifications: disulfide 6-16
SMILES: CC[C@H](C)[C@H](NC(=O)[C@H](C)NC(=O)[C@H](CO)NC(=O)CNC(=O)[C@H](CCCCNC(=O)COCCOCCNC(=O)COCCOCCNC(=O)CC[C@H](NC(=O)CCCCCCCCCCCCCCC(=O)O)C(=O)O)NC(C)=O)C(=O)N[C@H]1CSSC[C@@H](C(=O)N[C@H](C(=O)N[C@@H](CCC(=O)O)C(=O)NCC(=O)N[C@@H](CCC(=O)O)C(N)=O)[C@@H](C)O)NC(=O)[C@H](CCCNC(=N)N)NC(=O)[C@H](Cc2c[nH]cn2)NC(=O)[C@H](CCC(=O)O)NC(=O)CNC(=O)[C@H](Cc2c[nH]c3ccccc23)NC(=O)[C@H](CC(=O)O)NC(=O)[C@H](CCC(N)=O)NC(=O)[C@H](Cc2c[nH]c3ccccc23)NC(=O)[C@H]([C@@H](C)CC)NC1=O
B9: Compound 109 (peptide)
peptide: Ac-EGSAYCI[Trp(1-Me)]QDWGEHRC[Sar]EGEK([γGlu-Gly-γGlu-C18 diacid])-NH2
modifications: disulfide 6-16
SMILES: CC[C@H](C)[C@@H]1NC(=O)[C@@H](NC(=O)[C@H](Cc2ccc(O)cc2)NC(=O)[C@H](C)NC(=O)[C@H](CO)NC(=O)CNC(=O)[C@H](CCC(=O)O)NC(C)=O)CSSC[C@@H](C(=O)N(C)CC(=O)N[C@@H](CCC(=O)O)C(=O)NCC(=O)N[C@@H](CCC(=O)O)C(=O)N[C@@H](CCCCNC(=O)CC[C@H](NC(=O)CNC(=O)CC[C@H](NC(=O)CCCCCCCCCCCCCCCCC(=O)O)C(=O)O)C(=O)O)C(N)=O)NC(=O)[C@H](CCCNC(=N)N)NC(=O)[C@H](Cc2c[nH]cn2)NC(=O)[C@H](CCC(=O)O)NC(=O)CNC(=O)[C@H](Cc2c[nH]c3ccccc23)NC(=O)[C@H](CC(=O)O)NC(=O)[C@H](CCC(N)=O)NC(=O)[C@H](Cc2cn(C)c3ccccc23)NC1=O
B10: Compound 98 (peptide)
peptide: Ac-ICIWQDWGEHRCTEGK([AEEA-AEEA-γGlu-C20 diacid])-NH2
modifications: disulfide 2-12
SMILES: CC[C@H](C)[C@H](NC(C)=O)C(=O)N[C@H]1CSSC[C@@H](C(=O)N[C@H](C(=O)N[C@@H](CCC(=O)O)C(=O)NCC(=O)N[C@@H](CCCCNC(=O)COCCOCCNC(=O)COCCOCCNC(=O)CC[C@H](NC(=O)CCCCCCCCCCCCCCCCCCC(=O)O)C(=O)O)C(N)=O)[C@@H](C)O)NC(=O)[C@H](CCCNC(=N)N)NC(=O)[C@H](Cc2c[nH]cn2)NC(=O)[C@H](CCC(=O)O)NC(=O)CNC(=O)[C@H](Cc2c[nH]c3ccccc23)NC(=O)[C@H](CC(=O)O)NC(=O)[C@H](CCC(N)=O)NC(=O)[C@H](Cc2c[nH]c3ccccc23)NC(=O)[C@H]([C@@H](C)CC)NC1=O

Target: Human C3 (Complement tech cat #A113c) (human, UniProt P01024 23-1663)
Experiment: cell-based or functional assay

Sequence of Human C3 (Complement tech cat #A113c) (P01024 23-1663 limits assumed): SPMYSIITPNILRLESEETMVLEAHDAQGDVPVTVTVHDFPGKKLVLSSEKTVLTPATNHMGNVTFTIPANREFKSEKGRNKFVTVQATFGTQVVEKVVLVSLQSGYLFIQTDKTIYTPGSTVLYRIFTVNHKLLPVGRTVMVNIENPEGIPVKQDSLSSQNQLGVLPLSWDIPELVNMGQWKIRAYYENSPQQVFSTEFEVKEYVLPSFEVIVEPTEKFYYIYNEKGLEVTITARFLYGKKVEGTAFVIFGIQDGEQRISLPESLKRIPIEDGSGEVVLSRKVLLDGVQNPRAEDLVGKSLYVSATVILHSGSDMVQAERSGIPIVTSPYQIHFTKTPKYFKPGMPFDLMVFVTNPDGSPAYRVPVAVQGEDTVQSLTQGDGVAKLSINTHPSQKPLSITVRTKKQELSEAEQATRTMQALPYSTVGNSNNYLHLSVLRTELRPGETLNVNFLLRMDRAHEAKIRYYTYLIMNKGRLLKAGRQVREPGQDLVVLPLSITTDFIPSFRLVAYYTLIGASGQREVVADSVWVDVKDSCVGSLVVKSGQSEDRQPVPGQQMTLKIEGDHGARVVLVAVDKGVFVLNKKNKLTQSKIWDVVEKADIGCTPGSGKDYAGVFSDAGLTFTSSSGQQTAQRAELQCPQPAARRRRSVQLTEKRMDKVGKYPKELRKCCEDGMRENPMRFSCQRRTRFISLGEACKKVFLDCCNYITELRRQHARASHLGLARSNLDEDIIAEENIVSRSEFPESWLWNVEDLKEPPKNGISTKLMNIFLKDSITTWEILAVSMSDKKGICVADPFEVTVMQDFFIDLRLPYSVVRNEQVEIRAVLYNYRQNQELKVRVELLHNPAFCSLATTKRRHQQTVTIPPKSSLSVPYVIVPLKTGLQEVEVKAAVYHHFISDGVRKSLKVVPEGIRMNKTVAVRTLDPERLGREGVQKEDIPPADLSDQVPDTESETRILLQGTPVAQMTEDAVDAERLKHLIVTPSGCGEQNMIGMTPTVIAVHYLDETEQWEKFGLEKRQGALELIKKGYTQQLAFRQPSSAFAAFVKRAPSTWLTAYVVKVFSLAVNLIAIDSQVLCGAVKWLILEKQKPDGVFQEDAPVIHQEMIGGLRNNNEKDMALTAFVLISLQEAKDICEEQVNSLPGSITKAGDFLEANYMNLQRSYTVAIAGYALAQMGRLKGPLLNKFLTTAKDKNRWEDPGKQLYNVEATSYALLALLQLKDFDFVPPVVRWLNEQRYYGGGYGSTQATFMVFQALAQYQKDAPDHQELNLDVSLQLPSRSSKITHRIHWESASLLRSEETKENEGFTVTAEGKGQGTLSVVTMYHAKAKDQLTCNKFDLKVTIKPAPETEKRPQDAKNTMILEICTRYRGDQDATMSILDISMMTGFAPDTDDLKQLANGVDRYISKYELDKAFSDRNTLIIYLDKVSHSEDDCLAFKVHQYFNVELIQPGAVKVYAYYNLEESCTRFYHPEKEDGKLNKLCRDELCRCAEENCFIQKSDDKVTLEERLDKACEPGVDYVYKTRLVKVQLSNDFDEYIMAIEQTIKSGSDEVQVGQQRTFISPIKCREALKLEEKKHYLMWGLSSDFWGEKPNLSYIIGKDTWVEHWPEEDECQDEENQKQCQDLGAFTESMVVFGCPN

Row | Binder | inhibition of hemolysis IC50 [nM]
1 | {C16 diacid}-ESSAICIWQDWGEHRCTEGE-NH2 (disulfide 6-16) [Compound 99] | < 250
2 | B1 | < 500
3 | Ac-SAYCI[Trp(1-Me)]QDWGEHRC[Sar]EK([γGlu-Gly-Lys-γGlu-C18 diacid])-NH2 (disulfide 4-14) [Compound 105] | < 100
4 | B2 | < 250
5 | B3 | < 500
6 | B4 | < 500
7 | B5 | < 500
8 | B6 | < 100
9 | B7 | < 250
10 | B8 | < 500
11 | B9 | < 250
12 | B10 | < 500
